Reference: the supplement of paper PMC10567573

B1: VPS39 (parent)
chain: QQVKCIITEEKVCMVCKKKIGNSA

Variants of: B1
Experiment: protein stability index of a GFP-peptide fusion (GPS, HEK-293T) (PSI 1-6); higher = more stable
Details: c terminus: a fixed tail appended
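Further: lentivirally expressed fusions sorted by FACS into six bins by GFP to DsRed ratio, PSI derived from sequencing read proportions per bin multiplied by bin number.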

Protein stability index of substitutions, site by site:
K18: M 1.57; G 2.56; I 2.43; L 2.16; N 2.94; Q 2.5; V 1.78; H 3.24; W 1.02; Y 1.41; C 2.02; R 2.33; P 2.37; S 3.09; E 3.09; T 2.08; F 1.98; D 3.4; A 2.88
G21: I 3.17; K 3.08; Y 2.3; S 2.7; A 2.98; L 2.31; D 2.81; C 3.19; V 3.1; W 1.76; H 2.93; N 3.01; F 2.87; M 2.13; Q 2.76; R 2.16; E 3.32; T 2.51; P 2.55
M14: Q 3.06; C 4.14; P 3.15; N 2.67; H 3.13; E 3.61; W 2.02; K 3.44; F 2.89; Y 2.57; A 2.49; I 2.14; V 2.8; T 3.3
V15: N 3.08; H 3.43; M 2.83; F 2.92; I 2.27; E 4.38; R 3.07; W 2.97; L 2.82; T 3.68; C 3.26; Q 2.6; G 2.71; A 3.32; K 3.05; Y 2.17; D 3.34; S 3.74; P 3.99
S23: A 3.52; D 3.6; G 3.05; H 2.98; N 2.41; E 4.07; C 3.62; K 3.09; F 1.95; P 2.4; T 2.78; Q 2.5; W 1.82; L 1.45; R 2.77; I 1.73; V 2.19
E10: M 2.4; F 1.97; K 2.54; S 2.03; G 2.41; I 2.34; C 3.05; A 1.9; T 2.41; P 2.69; L 1.47; D 1.95; N 2.01; W 2.44; H 2.13; Q 2.29; Y 2.65; R 2.23
E9: G 2; S 3.77; L 1.73; K 2.49; F 2.94; P 2.46; M 1.33; H 1.85; D 3.29; I 1.81; Y 1.9; C 1.8; V 1.95; T 2.08; Q 1.85; A 2.22; W 1.35; R 1.54; N 1.87
I7: G 2.77; W 2.46; Y 3.28; P 4.23; K 2.9; T 2.69; N 2.84; S 3.06; A 3.38; R 2.86; Q 2.76; H 4.39; E 3.01; V 3.4; F 2.97; M 3.54; L 2.11; D 3.49; C 4.47
T8: R 2.45; K 2.47; Y 2.6; A 2.45; W 2.87; I 2.12; N 2.9; P 4.09; E 3.48; V 2.12; D 3.08; G 3.42; L 2.16; F 1.52; Q 3.34; H 2.81; C 2.48
V12: D 3.87; K 2.94; T 2.69; L 2.86; N 3.68; S 3.41; E 3.96; C 2.09; H 2.64; M 2.81; A 3.41; I 3.06; R 2.88; P 3.44; F 2.11; Q 2.5; G 3.55; Y 2.31; W 1.98
C5: P 3.32; T 3.16; V 2.22; W 1.94; Y 2.69; R 3.48; Q 3.07
N22: Q 3.38; S 2.62; F 2; A 2.21; G 1.42; C 2.98; E 3.33; I 1.75; Y 1.99; W 1.81; L 2.57; K 2.79; D 3.7; M 2.75; R 1.84; V 2.11; H 2.25; T 2.29
I6: F 2.6; D 3.82; L 2.45; G 2.47; A 2.67; M 2.93; Y 2.49; P 4.07; K 3.46; Q 3.13; W 1.75; R 2.6; V 3.05; C 3.34; S 3.5; H 3.47; N 3.25; T 3.38; E 3.96
K11: A 3.64; C 4.08; E 2.87; Q 2.84; F 1.75; W 2.08; G 2.35; I 2.44; L 1.87; H 3.3; D 2.52; V 2.39; Y 1.77; R 2.9; P 3.15; N 2.89; M 1.8; S 2.9; T 2.55
K17: N 3.05; V 1.54; L 1.42; Q 3.11; C 3.34; T 2.5; R 2.27; M 2.29; E 3.21; P 3; F 2.85; I 1.74; G 3.58; Y 3.09; D 3.68; W 2.66; H 2.46; S 2.82
I20: T 2.89; H 4.29; D 3.51; L 3.15; Q 3.53; F 3.06; R 3.26; A 3.35; G 2.79; K 3.58; Y 3.15; C 3.26; E 4.03; N 2.69; V 1.95; M 3.33; S 3.67; P 3.17
C16: I 2.19; W 2.5; H 3.79; A 3.96; Y 3.69; S 3.45; Q 3.93; R 4.5; P 4.22; L 3.07; T 3.72; G 4.28; M 3.13; N 3.88; D 4.91; F 3.15; K 3.41; E 4.29
K19: P 2.14; W 1.76; H 2.12; E 2.89; C 3.48; N 2.15; F 1.72; L 2.56; Y 2.09; R 2.28; S 2.25; D 3.52; A 2.38; M 1.67; Q 2.19; V 2.5; T 2.66; G 2.48
C13: I 3.09; D 4.67; R 3.95; L 3.1; T 3.83; W 2.6; S 3.52; P 3.78; K 2.82; V 2.59; E 4.41; G 3.48; Y 2.91; Q 3.78; F 2.54; M 2.98; N 4.4; H 3.62; A 3.88
